According to US20150141622A1 (published 2015):

B1: VEGFR-3-Ig fusion protein (first three Ig-homology domains of VEGFR-3 and IgG Fc domain) (Fc fusion, not shown: a dimerising Fc or GST)
chain: YSMTPPTLNITEESHVIDTGDSLSISCRGQHPLEWAWPGAQEAPATGDKDSEDTGVVRDCEGTDARPYCKVLLLHEVHANDTGSYVCYYKYIKARIEGTTAASSYVFVRDFEQPFINKPDTLLVNRKDAMWVPCLVSIPGLNVTLRSQSSVLWPDGQEVVWDDRRGMLVSTPLLHDALYLQCETTWGDQDFLSNPFLVHITGNELYDIQLLPRKSLELLVGEKLVLNCTVWAEFNSGVTFDWDYPGKQAERGKWVPERRSQQTHTELSSILTIHNVSQHDLGSYVCKANNGIQRFRESTEVIVHE

Molecular target: T1, mature form of human VEGF-C (human, UniProt P49767 103-227)
T1 sequence: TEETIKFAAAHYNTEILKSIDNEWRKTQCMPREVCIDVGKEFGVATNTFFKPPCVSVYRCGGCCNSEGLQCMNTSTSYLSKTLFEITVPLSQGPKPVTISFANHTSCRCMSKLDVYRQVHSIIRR
Test: cell-based or functional assay

Molecule | VEGF-C dependent viability (Ba/F3 VEGFR-3/EpoR, MTT) (fold molar excess) | VEGF-C-dependent cell survival (Ba/F3 VEGFR-3/EpoR, MTT)
VEGFR-2-Ig (Fc fusion) | 10 | –
B1 | – | 0.5 molar ratio (VEGFR-3-Ig:VEGF-C)
